B1: Pleckstrin homology domain-containing family M member 1 (Homo sapiens), Q9Y4G2 (parent)
chain: MLSVVENGLDPQAAIPVIKKKLVGSVKALQKQYVSLDTVVTSEDGDANTMCSALEAVFIHGLHAKHIRAEAGGKRKKSAHQKPLPQPVFWPLLKAVTHKHIISELEHLTFVNTDVGRCRAWLRLALNDGLMECYLKLLLQEQARLHEYYQPTALLRDAEEGEFLLSFLQGLTSLSFELSYKSAILNEWTLTPLALSGLCPLSELDPLSTSGAELQRKESLDSISHSSGSEDIEVHHSGHKIRRNQKLTASSLSLDTASSSQLSCSLNSDSCLLQENGSKSPDHCEEPMSCDSDLGTANAEDSDRSLQEVLLEFSKAQVNSVPTNGLSQETEIPTPQASLSLHGLNTSTYLHCEAPAEPLPAQAASGTQDGVHVQEPRPQAPSPLDLQQPVESTSGQQPSSTVSETAREVGQGNGLQKAQAHDGAGLKLVVSSPTSPKNKSWISEDDFYRPSREQPLESASDHPIASYRGTPGSRPGLHRHFSQEPRKNCSLGALDQACVPSPGRRQAQAAPSQGHKSFRVVHRRQMGLSNPFRGLMKLGTVERRGAMGIWKELFCELSPLEFRLYLSNEEHTCVENCSLLRCESVGPAHSDGRFELVFSGKKLALRASSQDEAEDWLDRVREALQKVRPQQEDEWVNVQYPDQPEEPPEAPQGCLSPSDLLSEPAALQGTQFDWSSAQVPEPDAIKESLLYLYMDRTWMPYIFSLSLEALKCFRIRNNEKMLSDSHGVETIRDILPDTSLGGPSFFKIITAKAVLKLQAGNAEEAALWRDLVRKVLASYLETAEEAVTLGGSLDENCQEVLKFATRENGFLLQYLVAIPMEKGLDSQGCFCAGCSRQIGFSFVRPKLCAFSGLYYCDICHQDDASVIPARIIHNWDLTKRPICRQALKFLTQIRAQPLINLQMVNASLYEHVERMHLIGRRREQLKLLGDYLGLCRSGALKELSKRLNHRNYLLESPHRFSVADLQQIADGVYEGFLKALIEFASQHVYHCDLCTQRGFICQICQHHDIIFPFEFDTTVRCAECKTVFHQSCQAVVKKGCPRCARRRKYQEQNIFA

Variants of: B1
Conditions: with rab7a_canlf RAB7A

Row | Variant | effect of a mutation on the interaction
1 | E729A | with no effect
2 | R769A | with no effect
